Results on one molecule are retold here after patent US20150064174A1 (BRIGHAM AND WOMEN S HOSPITAL, published 2015).

The target in the experiment is T1, Epstein-Barr virus (EBV)-encoded glycoprotein 350 (gp350) (Epstein-Barr virus, UniProt P03200 1-860).
T1 construct: also called EBV gp350; column-purified EBV gp350 protein
T1 sequence: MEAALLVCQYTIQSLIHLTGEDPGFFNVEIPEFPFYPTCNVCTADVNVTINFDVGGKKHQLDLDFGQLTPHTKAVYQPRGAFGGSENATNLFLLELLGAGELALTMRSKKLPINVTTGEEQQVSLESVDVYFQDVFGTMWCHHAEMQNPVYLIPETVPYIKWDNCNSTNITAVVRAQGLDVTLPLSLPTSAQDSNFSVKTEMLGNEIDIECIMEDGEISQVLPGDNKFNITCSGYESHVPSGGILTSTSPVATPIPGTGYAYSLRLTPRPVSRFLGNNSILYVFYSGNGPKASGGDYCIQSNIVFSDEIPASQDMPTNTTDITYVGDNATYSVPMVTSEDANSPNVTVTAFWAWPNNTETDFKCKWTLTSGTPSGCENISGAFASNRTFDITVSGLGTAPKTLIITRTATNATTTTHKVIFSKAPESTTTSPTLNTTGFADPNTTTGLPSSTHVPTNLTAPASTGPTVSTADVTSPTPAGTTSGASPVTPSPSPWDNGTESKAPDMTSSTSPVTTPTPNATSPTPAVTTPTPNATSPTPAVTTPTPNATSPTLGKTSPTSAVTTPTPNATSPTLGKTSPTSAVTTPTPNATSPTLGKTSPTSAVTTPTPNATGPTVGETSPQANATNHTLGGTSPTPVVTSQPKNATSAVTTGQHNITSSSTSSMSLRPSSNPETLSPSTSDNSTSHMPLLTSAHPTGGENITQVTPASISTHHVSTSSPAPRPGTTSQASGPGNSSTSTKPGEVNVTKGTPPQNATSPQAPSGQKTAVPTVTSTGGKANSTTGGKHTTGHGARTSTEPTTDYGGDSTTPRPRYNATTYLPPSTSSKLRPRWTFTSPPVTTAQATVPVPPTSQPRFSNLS
The experiment is described as follows: ELISA, plate-coated purified gp350, HEK293T supernatant, anti-human IgG-HRP. (In general: An ELISA detects its analyte on a solid surface through an enzyme-linked reagent.)

B1: recombinant humanized (chimeric) 72A1 antibody, heavy chain 2 and lambda light chain (Vh2+L) (antibody, V domains shown)
VH: DVQLVESGGGLVQPGGSRKLSCAASGFTFSSFGMHWVRQAPEKGLEWVAYISSGSSTLHYADTVKGRFTISRDNPKNTLFLQMTSLRSEDTAMYYCARWGNYPHYAMDYWGQGTSVTVSS
VL: QAVLTQESALTTSPGETVTLTCRSSTGAVTTSNYANWVQEKPDHLFTGLIGGTNNRVPGVPARFSGSLIGDKAALTITGAQTEDEAIYFCVLWHSNHWVFGGGTKLTVL
notes: Murine variable regions on human IgG1 (pCIRN) and human IgK (pEIG) constant regions; HEK293T supernatant
Take B1: the binding result is “no binding (tested: supernatant diluted 1:2)”.
